{"source": "the supplement of paper PMC10567573", "parents": {"B1": {"name": "FAM107A (parent)", "chain": "HRRGLGVDSKPELQRVLEHRRRNQ"}}}
{"variants_of": "B1", "experiment": "protein stability index of a GFP-peptide fusion (GPS, HEK-293T) (PSI 1-6); higher = more stable", "settings": "c terminus: a fixed tail appended"}
{"variant": "R15H", "protein stability index": 4.25}
{"variant": "R15M", "protein stability index": 4.06}
{"variant": "R15Y", "protein stability index": 4.79}
{"variant": "R15A", "protein stability index": 4.26}
{"variant": "R15S", "protein stability index": 4.43}
{"variant": "R15N", "protein stability index": 4.29}
{"variant": "R15Q", "protein stability index": 3.56}
{"variant": "R15G", "protein stability index": 5.35}
{"variant": "R15D", "protein stability index": 4.26}
{"variant": "R15T", "protein stability index": 4.34}
{"variant": "R15E", "protein stability index": 4.17}
{"variant": "R15F", "protein stability index": 4.19}
{"variant": "R15P", "protein stability index": 4.89}
{"variant": "R15K", "protein stability index": 3.31}
{"variant": "R15W", "protein stability index": 3.21}
{"variant": "L13T", "protein stability index": 5.23}
{"variant": "L13N", "protein stability index": 5.21}
{"variant": "L13V", "protein stability index": 3.94}
{"variant": "L13R", "protein stability index": 4.14}
{"variant": "L13Y", "protein stability index": 4.95}
{"variant": "L13Q", "protein stability index": 5.33}
{"variant": "L13S", "protein stability index": 4.93}
{"variant": "N23D", "protein stability index": 3.85}
{"variant": "N23H", "protein stability index": 2.74}
{"variant": "N23R", "protein stability index": 3.26}
{"variant": "N23C", "protein stability index": 2.37}
{"variant": "N23Q", "protein stability index": 3.14}
{"variant": "N23E", "protein stability index": 3.52}
{"variant": "N23L", "protein stability index": 2.35}
{"variant": "N23I", "protein stability index": 2.32}
{"variant": "N23V", "protein stability index": 3.33}
{"variant": "N23P", "protein stability index": 3.03}
{"variant": "N23F", "protein stability index": 4.65}
{"variant": "N23A", "protein stability index": 2.99}
{"variant": "V16T", "protein stability index": 3.71}
{"variant": "V16D", "protein stability index": 4.25}
{"variant": "V16C", "protein stability index": 4.44}
{"variant": "V16K", "protein stability index": 4.47}
{"variant": "V16A", "protein stability index": 4.83}
{"variant": "V16I", "protein stability index": 3.63}
{"variant": "V16Q", "protein stability index": 5.45}
{"variant": "V16P", "protein stability index": 4.89}
{"variant": "V16L", "protein stability index": 4.03}
{"variant": "V16Y", "protein stability index": 4.46}
{"variant": "V16N", "protein stability index": 4.76}
{"variant": "V16F", "protein stability index": 4.23}
{"variant": "V16R", "protein stability index": 4.67}
{"variant": "V16H", "protein stability index": 3.96}
{"variant": "V16S", "protein stability index": 4.01}
{"variant": "V16G", "protein stability index": 5.55}
{"variant": "L17H", "protein stability index": 4.34}
{"variant": "L17W", "protein stability index": 3.71}
{"variant": "L17P", "protein stability index": 4.7}
{"variant": "L17M", "protein stability index": 4.14}
{"variant": "L17Y", "protein stability index": 4.56}
{"variant": "L17D", "protein stability index": 5.01}
{"variant": "L17V", "protein stability index": 4.17}
{"variant": "L17E", "protein stability index": 4.21}
{"variant": "L17N", "protein stability index": 5.25}
{"variant": "L17I", "protein stability index": 4.76}
{"variant": "L17A", "protein stability index": 4.92}
{"variant": "L17S", "protein stability index": 4.79}
{"variant": "L17Q", "protein stability index": 4.99}
{"variant": "L17K", "protein stability index": 4.53}
{"variant": "L17C", "protein stability index": 5.08}
{"variant": "L17G", "protein stability index": 5.21}
{"variant": "R21D", "protein stability index": 4.11}
{"variant": "R21L", "protein stability index": 3.77}
{"variant": "R21Q", "protein stability index": 4.38}
{"variant": "R21K", "protein stability index": 4.15}
{"variant": "R21H", "protein stability index": 4.38}
{"variant": "R21T", "protein stability index": 3.48}
{"variant": "R21M", "protein stability index": 4.09}
{"variant": "R21N", "protein stability index": 4.74}
{"variant": "R21Y", "protein stability index": 3.98}
{"variant": "R21C", "protein stability index": 3.39}
{"variant": "R21I", "protein stability index": 3.86}
{"variant": "R21W", "protein stability index": 3.64}
{"variant": "R21S", "protein stability index": 3.37}
{"variant": "R21E", "protein stability index": 5.04}
{"variant": "Q24M", "protein stability index": 2.88}
{"variant": "Q24V", "protein stability index": 3.24}
{"variant": "Q24D", "protein stability index": 3.81}
{"variant": "Q24A", "protein stability index": 3.88}
{"variant": "Q24E", "protein stability index": 4.59}
{"variant": "Q24S", "protein stability index": 3.57}
{"variant": "Q24L", "protein stability index": 2.49}
{"variant": "Q24P", "protein stability index": 2.74}
{"variant": "Q24N", "protein stability index": 4.19}
{"variant": "Q24T", "protein stability index": 3.78}
{"variant": "Q24I", "protein stability index": 2.4}
{"variant": "Q24C", "protein stability index": 3.59}
{"variant": "Q24H", "protein stability index": 3.64}
{"variant": "Q24K", "protein stability index": 4.39}
{"variant": "E18D", "protein stability index": 3.29}
{"variant": "E18A", "protein stability index": 3.57}
{"variant": "E18G", "protein stability index": 3.58}
{"variant": "E18F", "protein stability index": 3.93}
{"variant": "E18Q", "protein stability index": 2.67}
{"variant": "E18M", "protein stability index": 2.48}
{"variant": "E18S", "protein stability index": 2.71}
{"variant": "E18L", "protein stability index": 3.98}
{"variant": "E18Y", "protein stability index": 4.17}
{"variant": "E18P", "protein stability index": 5.02}
{"variant": "E18T", "protein stability index": 3.58}
{"variant": "E18N", "protein stability index": 4.02}
{"variant": "E18R", "protein stability index": 4.12}
{"variant": "R20E", "protein stability index": 4.33}
{"variant": "R20C", "protein stability index": 4.53}
{"variant": "R20T", "protein stability index": 4.42}
{"variant": "R20Q", "protein stability index": 3.96}
{"variant": "R20A", "protein stability index": 3.36}
{"variant": "R20G", "protein stability index": 3.95}
{"variant": "R20L", "protein stability index": 3.31}
{"variant": "R20K", "protein stability index": 4.79}
{"variant": "R20M", "protein stability index": 4.04}
{"variant": "R20P", "protein stability index": 4.59}
{"variant": "R20I", "protein stability index": 3.78}
{"variant": "R20W", "protein stability index": 3.47}
{"variant": "R20F", "protein stability index": 2.69}
{"variant": "R20D", "protein stability index": 3.98}
{"variant": "R20S", "protein stability index": 4.27}
{"variant": "R20N", "protein stability index": 4.04}
{"variant": "R20Y", "protein stability index": 3.41}
{"variant": "R22C", "protein stability index": 3.6}
{"variant": "R22D", "protein stability index": 4.62}
{"variant": "R22F", "protein stability index": 3.43}
{"variant": "R22G", "protein stability index": 3.64}
{"variant": "R22W", "protein stability index": 2.46}
{"variant": "R22H", "protein stability index": 3.55}
{"variant": "R22Q", "protein stability index": 3.57}
{"variant": "R22A", "protein stability index": 4.63}
{"variant": "R22N", "protein stability index": 3.48}
{"variant": "R22L", "protein stability index": 3.4}
{"variant": "R22K", "protein stability index": 4.46}
{"variant": "R22S", "protein stability index": 4.79}
{"variant": "R22P", "protein stability index": 4.36}
{"variant": "R22T", "protein stability index": 3.76}
{"variant": "R22Y", "protein stability index": 3.82}
{"variant": "H19Y", "protein stability index": 3.72}
{"variant": "H19I", "protein stability index": 4.04}
{"variant": "H19M", "protein stability index": 4.13}
{"variant": "H19R", "protein stability index": 4.54}
{"variant": "H19S", "protein stability index": 4.82}
{"variant": "H19C", "protein stability index": 2.01}
{"variant": "H19P", "protein stability index": 4.29}
{"variant": "H19G", "protein stability index": 4.68}
{"variant": "H19W", "protein stability index": 1.53}
{"variant": "H19L", "protein stability index": 4.45}
{"variant": "H19D", "protein stability index": 5.29}
{"variant": "H19N", "protein stability index": 4.93}
{"variant": "H19Q", "protein stability index": 3.67}
{"variant": "H19K", "protein stability index": 4.29}
{"variant": "Q14K", "protein stability index": 3.39}
{"variant": "Q14H", "protein stability index": 3.48}
{"variant": "Q14S", "protein stability index": 3.71}
{"variant": "Q14G", "protein stability index": 4.8}
{"variant": "Q14T", "protein stability index": 4.28}
{"variant": "Q14M", "protein stability index": 2.81}
{"variant": "Q14V", "protein stability index": 3.86}
{"variant": "Q14P", "protein stability index": 4}
{"variant": "Q14D", "protein stability index": 4.07}
{"variant": "Q14N", "protein stability index": 4.5}
{"variant": "Q14I", "protein stability index": 2.75}
{"variant": "Q14C", "protein stability index": 4.03}
{"variant": "Q14F", "protein stability index": 3.62}
{"variant": "Q14Y", "protein stability index": 3.15}
